The record followed here is US20150299265A1 (Molecular Partners, published 2015).

Assay [1] addresses T1, Recombinant human HER2 ectodomain (human, UniProt P04626 23-652, biotinylated on primary amines (for SPR and crude extract ELISA)).
T1 construct: extracellular domain; also called ErbB2; ectodomain of human HER2; not shown: Flag tag
The assay is described as follows: SPR (ProteOn); biotinylated human HER2 on neutravidin chip, monovalent DARPin injected. As to the method:
Protein binding kinetics of interesting purified HER2-binding DARPins were assayed by Surface Plasmon Resonance (SPR) analysis with a ProteOn array system (BioRad) using a setup, where biotinylated human HER2 was immobilized via neutravidin and the interaction was measured by adding free monovalent DARPin. The determination of Kd values was performed according to standard procedures.
SPR was measured using a ProteOn instrument (BioRad) and measurement was performed according standard procedures known to the person skilled in the art. The running buffer was PBS, pH 7.4, containing 0.005% Tween 20®. Neutravidin was covalently immobilized on a GLC chip (BioRad) to a level of about 8000 resonance units (RU). Immobilization of HER2 on the neutravidin coated chip was then performed. […] The signals (i.e. resonance unit (RU) values) of an uncoated reference cell and a reference injection (i.e. injection of running buffer only) were subtracted from the RU traces obtained after injection of […] (double-referencing). From the SRP traces obtained from the on-rate and off-rate measurements the on- and off-rate of the corresponding DARPin HER2 interaction can be determined.
Dissociation constants (Kd) were calculated from the estimated on- and off-rates using standard procedures known to the person skilled in the art.

The target of assay [2] is T1, Recombinant human HER2 ectodomain. The assay is described as follows: ELISA on plate-coated full length HER2 (domain I-IV), detection by anti-RGS-His antibody; with and without 500 nM soluble HER2 domain I or domain I-III. A general note: ELISA stands for enzyme-linked immunosorbent assay.
Procedure: The DARPins (20 nM) were preincubated with HER2 domain I, domain I-III or domain III-IV (in each case at a domain concentration of 500 nM) in PBS for 45 min at room temperature. […] Bound DARPins were specifically detected using a monoclonal mouse anti RGS-His antibody (Qiagen Cat.34650) as primary antibody and an anti-mouse antibody labeled with horse radish peroxidase (Pierce, Cat.31438) as secondary antibody.
The read out was made at 450 nm.
Assay [3] concerns the target T2, Human HER2 expressed on tumour cells (human, UniProt P04626 23-1255). The assay can be described thus: cell-based or functional assay.
For assay [4], the target named is T2, Human HER2 expressed on tumour cells. The assay can be described thus: cell-based or functional assay. This is another data set of the same source.

B1: DARPin #5 (designed binder)
chain: MRGSHHHHHHGSDLGVKLLWAAARGQDDEVRILLAAGADVNAKDFQGITPLHIAATNGHLEIVEVLLKAGADVNAKDITGETPLHHAADSGHLEIVEVLLKAGADVNAQDKAGVTPADLAAAWGHEDIAEVLQKLN
notes: monovalent
Broadly, the Kd is the equilibrium constant for the complex coming apart. B1: in assay [1], the Kd is 0.0708 nM.

B2: DARPin #7 (designed binder)
chain: MRGSHHHHHHGSDLGIKLLFAAAKGQDDEVRILLAAGADVNAKDFEGYTPLHVAAYDGHLEIVEVLLKAGADVNAKDSQGRTPLHEAAYSGHLEIVEVLLKAGADVNAQDDAGETPADLAAAWGHEDIAEVLQKLN
notes: monovalent
As to B2, the Kd in assay [1] was determined as 1.03 nM.

B3: DARPin #53 (designed binder)
chain: MRGSHHHHHHGSDLGAKLLWAAAKGQDDEVRILLAAGADVNAKDWEGVTPLHIAAHAGHLEIVEVLLKAGADVNAKDIIGWTPLHSAAVYGHLEIVEVLLKAGADVNAQDWYGTTPADLAAWWGHEDIAVVLQKLN
notes: monovalent
For the molecule B3, the Kd in assay [1] was determined as 1.46 nM.

B4: DARPin #9 (designed binder)
chain: MRGSHHHHHHGSDLGHKLLEAAVAGQDDEVRILLAAGADVNAKDWYGKTPLHFAAGLGHLEIVEVLLKAGADVNAKDEDGQTPLHLAAAYGHLEIVEVLLKAGADVNAQDNDGFTPADLAADSGHEDIAEVLQKLN
notes: monovalent
As to B4, in assay [1], the Kd amounted to 0.417 nM.

B5: DARPin #50 (designed binder)
chain: MRGSHHHHHHGSDLGKKLLEAARAGQDDEVRILMANGADVNAKDKDGYTPLHLAAREGHLEIVEVLLKAGADVNAKDKDGYTPLHLAAREGHLEIVEVLLKAGADVNAQDKFGKTAFDISIDNGNEDLAEILQKLN
notes: also called negative control ankyrin repeat domain
In the case of B5, the binding result in assay [2] is recorded as “no binding (tested: 20 nM (not printed on the sheet))”.

B6: DARPin #8 (designed binder)
chain: MRGSHHHHHHGSDLGIKLLWAAAHGQDDEVRILLAADADVNAKDWYGTTPLHIAAVAGHLEIVEVLLKAGADVNAKDDFGTTPLHLAAYHGHLEIVEVLLKAGADVNAQDWQGQTPADLAAQDGHEDIAEVLQKLN
notes: monovalent
Take B6: the Kd in assay [1] stood at 0.483 nM.

B7: DARPin #52 (designed binder)
chain: MRGSHHHHHHGSDLGVKLLWAAAHGQDDEVRILLAADADVNAKDWYGTTPLHIAAVAGHLEIVEVLLKAGADVNAKDDFGTTPLHAAADYGHLEIVEVLLKAGADVNAQDYTGHTPADLAAVYGHEDIAAVLQKLN
notes: monovalent
Consider B7, for which the Kd in assay [1] was 0.137 nM.

B8: DARPin #51 (designed binder)
chain: MRGSHHHHHHGSDLGNKLLIAASVGQDDEVRILLAAGADVNAKDETGWTPLHLAAAWGHLEIVEVLLKAGADVNAKDVKGQTPLHLAAAYGHLEIVEVLLKAGADVNAQDNDGYTPADLAARYGHEDIAEVLQKLN
notes: monovalent
On to B8, for which the Kd in assay [1] came to 1.3 nM.

B9: DARPin #41 (designed binder)
chain: MRGSHHHHHHGSDLGAKLLSDLGVKLLWAAARGQDDEVRILLAAGADVNAKDFQGITPLHIAAQSGHLEIVEVLLKAGADVNAKDVTGDTPLHLAAQHGHLVIVEVLLKAGADVNAQDERGWTPADLAADWGHEDIAEVLQKLGGGGSGGGGSRSDLGKKLLEAARAGQDDEVRILMANGADVNAKDEYGLTPLYLATAHGHLEIVEVLLKNGADVNAVDAIGFTPLHLAAFIGHLEIAEVLLKHGADVNAQDKFGKTAFDISIGNGNEDLAEILQKLN
Take B9: the “IC50, inhibition of BT474 proliferation (single experiment of FIG. 2A)” value in assay [3] was about 2 nM. In addition, in assay [4], the “% activity vs. DARPin # 41, BT474 cell proliferation” value is 100% and the “IC50 [nM], inhibition of BT474 cell proliferation (BrdU)” value amounted to 4.01 nM.

B10: DARPin #21 (designed binder)
chain: MRGSHHHHHHGSDLGKKLLEAARAGQDDEVRILMANGADVNATDIHGHTPLHLAAAMGHLEIVEVLLKNGADVNANDWRGFTPLHLAALNGHLEIVEVLLKNGADVNATDTAGNTPLHLAAWFGHLEIVEVLLKNGADVNAQDKFGKTAFDISIDNGNEDLAEILQKLN
notes: monovalent
Consider B10, for which the Kd in assay [1] was determined as 1.65 nM.
